Data set [1] concerns the target HpFabZ (Helicobacter pylori) (UniProt B5Z920). Nature of the data set: SPR. The settings on record: cited from earlier work.
The data set “crystal structure” concerns the molecule itself. The experiment in a line: crystal structure.

One may read the Kd as the concentration at which binding is half-saturated.

Sequence of HpFabZ (Helicobacter pylori) (B5Z920 whole entry): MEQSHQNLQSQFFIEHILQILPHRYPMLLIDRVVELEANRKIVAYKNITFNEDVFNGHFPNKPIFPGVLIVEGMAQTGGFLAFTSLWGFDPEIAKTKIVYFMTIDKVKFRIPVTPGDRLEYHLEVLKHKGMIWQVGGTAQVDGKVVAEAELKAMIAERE

For the molecule HpACP (from UniProt B5Z6T1), the dissociation constant Kd in data set [1] was 10 nM.

B1: RifDH10, the dehydratase domain from the terminal module (module 10) of the rifamycin polyketide synthase (domain or fragment, Amycolatopsis mediterranei, UniProt O54593 2569-2872, looked up)
chain: ADTASDAVSLGLAGADHPLLGAVVQLPQSDGLVFTSRLSLRSHPWLADHAVRDVVIVPGTGLVELAVRAGDEAGCPVLDELVIEAPLVVPRRGGVRVQVALGGPADDGSRTVDVFSLREDADSWLRHATGVLVPENRPRGTAAFDFAAWPPPEAKPVDLTGAYDVLADVGYGYGPTFRAVRAVWRRGSGNTTETFAEIALPEDARAEAGRFGIHPALLDAALHSTMVSAAADTESYGDEVRLPFAWNGLRLHAAGASVLRVRVAKPERDSLSLEAVDESGGLVVTLDSLVGRPVSNDQLTTAAG
For B1, the binding result in “crystal structure” is given as “binds”.

Values taken from publication PMC3948214 (Biochemistry, 2013).
